Results as given in patent US20040115622A1.
No end group written: not given here.

Tests used:
[1] = molecular target: HLA-DR molecule encoded by the allele DRB1*0701 (human); assay: competition ELISA vs biotinylated YKL
[2] = molecular target: HLA-DR molecule encoded by the allele DRB1*0301 (human); assay: competition ELISA vs biotinylated MT 2-16
[3] = molecular target: T1, HLA-DR molecule encoded by the allele DRB1*1301 (human); assay: competition ELISA vs biotinylated B1 21-36
T1 chain 1: not shown
T1 chain 2: not shown

[4] = molecular target: HLA-DR molecule encoded by the allele DRB1*1101 (human); assay: competition ELISA vs biotinylated HA 306-318
[5] = molecular target: HLA-DR molecule encoded by the allele DRB5*0101 (human); assay: competition ELISA vs biotinylated HA 306-318
[6] = molecular target: HLA-DR molecule encoded by the allele DRB1*0101 (human); assay: competition ELISA vs biotinylated HA 306-318
[7] = molecular target: HLA-DR molecule encoded by the allele DRB1*1501 (human); assay: competition ELISA vs biotinylated A3 152-166
[8] = molecular target: HLA-DR molecule encoded by the allele DRB1*0401 (human); assay: competition ELISA vs biotinylated HA 306-318
[9] = molecular target: T2, HLA-DR molecule encoded by the allele DRB3*0101 (human); assay: competition ELISA vs biotinylated Lol 191-210
T2 chain 1: not shown
T2 chain 2: not shown

[10] = molecular target: T3, HLA-DR molecule encoded by the allele DRB4*0101 (human); assay: competition ELISA vs biotinylated E2/E168
T3 chain 1: not shown
T3 chain 2: not shown

[11] = molecular target: T1, HLA-DR molecule encoded by the allele …; assay: competition ELISA, nonbiotinylated peptide vs its biotinylated form

## LAFHHVARELHPEYF (modifications not checked) [Nef13.5 peptide (positions 189-203 of the HIV-1 Nef protein, Bru strain), P03406 189-203]
[1]
  IC50: 250 nM
[2]
  IC50: 1470 nM
[3]
  IC50: 600 nM
[4]
  IC50: 8 nM
[5]
  IC50: 600 nM

## ERMRRAEPAADGVGA (modifications not checked) [Nef1.5 peptide (positions 18-32 of the HIV-1 Nef protein, Bru strain), P03406 18-32]
[6]
  IC50: 2750 nM

## GKWSKSSVVGWPTVR (modifications not checked) [Nef1.1 peptide (positions 3-17 of the HIV-1 Nef protein, Bru strain), P03406 3-17]
[1]
  IC50: 48 nM
[3]
  IC50: 3000 nM
[7]
  IC50: 150 nM
[6]
  IC50: 1250 nM
[8]
  IC50: 700 nM
[4]
  IC50: 1750 nM

## LEWRFDSRLAFHHVA (modifications not checked) [Nef13.2 peptide (positions 181-195 of the HIV-1 Nef protein, Bru strain), P03406 181-195]
[1]
  IC50: 933 nM
[2]
  IC50: 73 nM
[3]
  IC50: 350 nM
[4]
  IC50: 18 nM
[5]
  IC50: 6 nM
[9]
  IC50: 60 nM

## WIYHTQGYFPDWQNYT (modifications not checked) [Nef7 peptide (positions 113-128 of the HIV-1 Nef protein, Bru strain), P03406 113-128]
[1]
  IC50: 4000 nM
[7]
  IC50: 9000 nM
[9]
  IC50: 75 nM

## PAADGVGAASRDLEK (modifications not checked) [Nef2 peptide (positions 25-39 of the HIV-1 Nef protein, Bru strain), P03406 25-39]
[2]
  IC50: 4250 nM

## LTFGWCYKLVPVEPD (modifications not checked) [Nef10.1 peptide (positions 137-151 of the HIV-1 Nef protein, Bru strain), P03406 137-151]
[1]
  IC50: 650 nM
[10]
  IC50: 2200 nM
[6]
  IC50: 150 nM
[8]
  IC50: 2000 nM
[4]
  IC50: 95 nM
[5]
  IC50: 4500 nM

## EWRFDSRLAFHHVAREL (modifications not checked) [Nef13 peptide (positions 182-198 of the HIV-1 Nef protein, Bru strain), P03406 182-198]
[1]
  IC50: 150 nM
[10]
  IC50: 6330 nM
[2]
  IC50: 55 nM
[3]
  IC50: 750 nM
[6]
  IC50: 5000 nM
[8]
  IC50: 3250 nM
[4]
  IC50: 48 nM
[5]
  IC50: 10 nM
[9]
  IC50: 250 nM

## AAVDLSHFLKEKGGL (modifications not checked) [Nef4.7 peptide (positions 83-97 of the HIV-1 Nef protein, Bru strain), P03406 83-97]
[6]
  IC50: 500 nM
[4]
  IC50: 7500 nM
[5]
  IC50: 3250 nM

## DKVEEANKGENTSLL (modifications not checked) [Nef10.6 peptide (positions 151-165 of the HIV-1 Nef protein, Bru strain), P03406 151-165]
[5]
  IC50: 1500 nM

## MGGKWSKSSVVGWPTVRERMRRAEPAADGVGAASRD (modifications not checked) [Nef1 peptide (positions 1-36 of the HIV-1 Nef protein, Bru strain), P03406 1-36]
[1]
  IC50: 40 nM
[10]
  IC50: 2500 nM
[3]
  IC50: 325 nM
[7]
  IC50: 40 nM
[6]
  IC50: 700 nM
[8]
  IC50: 250 nM
[4]
  IC50: 550 nM
[5]
  IC50: 400 nM

## VPVEPDKVEEANKGE (modifications not checked) [Nef10.5 peptide (positions 146-160 of the HIV-1 Nef protein, Bru strain), P03406 146-160]
[2]
  IC50: 2500 nM
[6]
  IC50: 550 nM
[8]
  IC50: 2000 nM

## WCYKLVPVEPDKVEE (modifications not checked) [Nef10.3 peptide (positions 141-155 of the HIV-1 Nef protein, Bru strain), P03406 141-155]
[1]
  IC50: 250 nM
[10]
  IC50: 1030 nM
[6]
  IC50: 850 nM
[8]
  IC50: 250 nM
[4]
  IC50: 350 nM
[5]
  IC50: 1500 nM

## TERVRLVTRHIYNREE (not fully specified) [B1 21-36 peptide, nonbiotinylated]
[11]
  IC50: 330 nM

## TQGYFPDWQNYTPGPG (modifications not checked) [Nef8 peptide (positions 117-132 of the HIV-1 Nef protein, Bru strain), P03406 117-132]
[8]
  IC50: 8000 nM
[9]
  IC50: 120 nM
